In publication PMC10876215, “Nucleosome conformation dictates the histone code” (eLife, 2024):
Like-named read-outs stand apart in the source and are kept apart here.

What was measured:
[1] = system: GST-PHD^W2891A-BD (GST-PHD^mut-BD); type: binding, Human; details: for binding: NCPs
Text: (§1) Human BPTF (Uniprot Q12830) PHD finger-bromodomain (PHD-BD) and PHD finger were cloned into pGEX6p with an N-terminal Glutathione S-Transferase (GST) tag and a PreScission protease cleavage site (Supplementary file 2A and Figure 1—figure supplement 2). BPTF BD with an N-terminal 6xHistidine (6His) tag and Tobacco Etch Virus (TEV) protease cleavage site was from Addgene (plasmid 39111). The Q5 site-directed mutagenesis kit (New England Biolabs [NEB]) was used for domain addition/removal or single amino acid substitutions. All constructs were expressed in E. coli BL21 (DE3) (Thermo Fisher Scientific or NEB). Cells were grown to OD600 ~1.0 and induced with 0.8 mM IPTG at 18 °C for ~16 hr in LB (or M9 minimal media for NMR). M9 media was supplemented with vitamin (Centrum Adult), 1 g/L ^15NH4Cl, and 5 g/L D-glucose. For constructs containing the BPTF PHD finger all growth media and buffers were supplemented with 100 μM ZnCl2. For purification of BPTF recombinants cells were lysed by sonication, and lysates were incubated with either glutathione agarose (Thermo Fisher Scientific) or Ni-NTA resin (Thermo Fisher Scientific) to respectively enrich for GST- and 6His-tagged proteins. Fusion proteins were eluted with reduced L-glutathione or imidazole as appropriate. For NMR, samples were cleaved from the GST tag using PreScission protease. All BPTF proteins were then further purified using anion exchange (Source 15Q, GE Healthcare Life Sciences) and size exclusion chromatography (SEC; Superdex 75, GE Healthcare Life Sciences). Protein concentrations were determined by UV-Vis spectroscopy.
The dCypher approach (dCypher for brevity) was developed on the chemiluminescent bead-based, no-wash Alpha platform (PerkinElmer) for the high-throughput profiling of CAP binding to PTM-defined histone peptides and semi-synthetic nucleosomes (homotypic NCPs unless stated otherwise) ([Marunde et al., 2022a]; [Morgan et al., 2021]; [Weinberg et al., 2019]; [Dilworth et al., 2022]; [Weinberg et al., 2021]; [Jain et al., 2020]; [Lloyd et al., 2020]). […]

[2] = target: T1, BPTF BD (6His-tagged) (Homo sapiens, UniProt Q12830); experiment: dCypher binding assay, histone peptides, 6His-BD Query; details: Table (Ext. Figure 2A), 4PL fit, top constrained (496106)
T1 construct: Q12830 (2914-3037); host or cells: E. coli BL21 (DE3)
Text: as §1, with “For NMR, samples were cleaved from the GST tag using PreScission protease. All BPTF proteins were then further purified using anion exchange (Source 15Q, GE Healthcare Life Sciences) and size exclusion chromatography (SEC; Superdex 75, GE Healthcare Life Sciences).” left out, “spectroscopy. […]” for “spectroscopy.”

[3] = target: T1, BPTF BD (6His-tagged); experiment: dCypher binding assay, NCPs, 6His-BD Query
Text: Human BPTF (Uniprot Q12830) PHD finger-bromodomain (PHD-BD) and PHD finger were cloned into pGEX6p with an N-terminal Glutathione S-Transferase (GST) tag and a PreScission protease cleavage site (Supplementary file 2A and Figure 1—figure supplement 2). BPTF BD with an N-terminal 6xHistidine (6His) tag and Tobacco Etch Virus (TEV) protease cleavage site was from Addgene (plasmid 39111). The Q5 site-directed mutagenesis kit (New England Biolabs [NEB]) was used for domain addition/removal or single amino acid substitutions. All constructs were expressed in E. coli BL21 (DE3) (Thermo Fisher Scientific or NEB). […] Protein concentrations were determined by UV-Vis spectroscopy.
The dCypher approach (dCypher for brevity) was developed on the chemiluminescent bead-based, no-wash Alpha platform (PerkinElmer) for the high-throughput profiling of CAP binding to PTM-defined histone peptides and semi-synthetic nucleosomes (homotypic NCPs unless stated otherwise) ([Marunde et al., 2022a]; [Morgan et al., 2021]; [Weinberg et al., 2019]; [Dilworth et al., 2022]; [Weinberg et al., 2021]; [Jain et al., 2020]; [Lloyd et al., 2020]). […] The plate was incubated at room temperature in subdued lighting for 60 min and the Alpha signal was measured on a PerkinElmer 2104 EnVision (680 nm laser excitation, 570 nm emission filter ± 50 nm bandwidth). […]

[4] = target: T2, BPTF PHD-BD (GST-tagged) (Homo sapiens, UniProt Q12830); experiment: dCypher binding assay, histone peptides, GST-PHD-BD Query
T2 construct: Q12830 (2865-3036); made in house; host or cells: E. coli BL21 (DE3)
Text: as §1, with “For NMR, samples were cleaved from the GST tag using PreScission protease. All BPTF proteins were then further purified using anion exchange (Source 15Q, GE Healthcare Life Sciences) and size exclusion chromatography (SEC; Superdex 75, GE Healthcare Life Sciences).” left out, “spectroscopy. […]” for “spectroscopy.”

[5] = target: T2, BPTF PHD-BD (GST-tagged); experiment: dCypher binding assay, NCPs, GST-PHD-BD Query
Text: as §1, with “For NMR, samples were cleaved from the GST tag using PreScission protease. All BPTF proteins were then further purified using anion exchange (Source 15Q, GE Healthcare Life Sciences) and size exclusion chromatography (SEC; Superdex 75, GE Healthcare Life Sciences).” left out, “spectroscopy. […]” for “spectroscopy.”

[6] = target: T3, BPTF PHD (6His-tagged) (Homo sapiens, UniProt Q12830); experiment: dCypher binding assay, histone peptides, 6His-PHD Query; details: Table (Ext. Figure 2A), 4PL fit, H3 1-20 top constrained (426889)
T3 construct: Q12830 (2865-2924); made in house; host or cells: E. coli BL21 (DE3)
Text: as §1, with “For NMR, samples were cleaved from the GST tag using PreScission protease. All BPTF proteins were then further purified using anion exchange (Source 15Q, GE Healthcare Life Sciences) and size exclusion chromatography (SEC; Superdex 75, GE Healthcare Life Sciences).” left out, “spectroscopy. […]” for “spectroscopy.”

[7] = system: 21 bp double-stranded DNA; experiment: NMR titration (1H-15N HSQC) of 15N-H4 tail peptide with dsDNA; type: binding; details: 30 μM peptide; DNA ratios up to 1:3; 20 mM MOPS pH 7.2, 150 mM KCl, 25 °C
Method: The histone H4 tail (residues 1–25 followed by a C-terminal tyrosine for quantification) was expressed from pGEX6p as a fusion with an N-terminal GST tag followed by a PreScission protease cleavage site (Supplementary file 2A). This was overexpressed in E. coli BL21 (DE3) (NEB) grown in M9 minimal media supplemented with vitamin (Centrum daily multivitamin), 1 g/L ^15NH4Cl, and 5 g/L D-glucose. Cells were grown to OD600 ~1.0 and induced with 0.5 mM IPTG at 37 °C for 4 hr. The ^15N-GST-H4 peptide fusion was purified on glutathione agarose resin (Thermofisher Scientific), cleaved with PreScission protease (16 hr at 4 °C), and products resolved by SEC (Superdex 75 10/300; GE Healthcare Life Sciences). […] Acquisition and deconvolution software used during data collection and analysis were MassLynx and MaxEnt, respectively. ^15N-H4 (1-25) peptide concentration was determined by UV-vis spectroscopy using the non-native C-terminal tyrosine.
Oligonucleotides (5’-[…]-3’ and the complement 5’-[…]-3’) for DNA titration NMR were from Integrated DNA Technologies (IDT). […] Duplex DNA was purified on a source 15Q column (GE Healthcare Life Sciences) and analyzed by 1% agarose gel. DNA was precipitated in ethanol, resuspended in ddH2O, and concentration was determined by UV-vis and the predicted extinction coefficient (ε260=333,804.5 M^–1 cm^–1). […]

Substance	binding ([1]; Figure 2B lower, PHDmut-BD W2891A)	binding to NCPs (in words) ([1]; GST-PHD^mut-BD)	binding ([1]; Table (Figure 2C), PHDmut-BD)	Log EC50rel [2] [M]	binding ([3]; Ext. Figure 2G, 6His BD)	binding ([3]; Table (Ext. Figure 2B), 6His-BD)	preference over peptides containing each PTM class alone (in words) [4]	preference over H3K4me3 or H3tetra^ac [5] [fold]	Log EC50rel [6] [M]	DNA binding by CSPs (in words) [7]
H3K4me3tri^ac: histone H3 peptide H3K4me3K9acK14acK18ac (NMR version aa 1–34)	no binding	lost binding	no binding	-5.811	no binding	no binding	no preference	> 20	-7.000	–
^15N-H4 (1-25) peptide: histone H4 tail residues 1–25 followed by a C-terminal tyrosine, recombinant	–	–	–	–	–	–	–	–	–	the H4 tail bound DNA
